In patent US20240376185A1 (SMIVET B V, published 2024):

T1: recombinant tetanus toxin fragment C (rTTC) (Clostridium tetani, UniProt P04958 865-1315)
T1 sequence: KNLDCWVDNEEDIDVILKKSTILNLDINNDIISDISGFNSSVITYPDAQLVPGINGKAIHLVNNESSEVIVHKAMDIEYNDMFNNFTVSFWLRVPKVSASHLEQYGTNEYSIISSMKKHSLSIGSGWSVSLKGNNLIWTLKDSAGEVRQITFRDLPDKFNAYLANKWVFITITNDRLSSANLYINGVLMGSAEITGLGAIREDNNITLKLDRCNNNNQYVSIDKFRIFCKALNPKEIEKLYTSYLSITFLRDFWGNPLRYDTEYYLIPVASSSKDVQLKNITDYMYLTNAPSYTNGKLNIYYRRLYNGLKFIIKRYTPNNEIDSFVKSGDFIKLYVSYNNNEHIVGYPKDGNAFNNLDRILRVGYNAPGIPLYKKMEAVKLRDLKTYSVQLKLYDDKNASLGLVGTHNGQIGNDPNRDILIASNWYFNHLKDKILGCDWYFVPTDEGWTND

B1: SVT22L (VHH)
VHH: QVQLQESGGGLVQAGESLRLSCTASGISFDDYAIGWFRQAPGQQRKGVACISKADGRTDYLGSVKGRFTLSTDNTKNTVHLQMNNLKPEDTALYTCAAEYKSCGMGYKPIDYWGQGMQVTVSS
B2: SVT06L (VHH)
VHH: QVQLQESGGGSVQAGGSLRLSCTASELSYDDYTIAWFRRAAGEGRVEDGEGVASITKSYDRAYDNKINYGHSVKGRFTISRDNAKNTVYLQMTDLLPSDTAVYYCALDITPPGGVGASLTEGFLFDYWGQGTQVTVSS
B3: SVT15L (VHH)
VHH: QVQLQESGGGLVQTGGSLRLSCRASGRAFANYHFGWFRQAPGKDREFVASISWKGGSTYYANFALGRFTSSVDRAESSVYLQMSGLTPEDTATYYCAAHDGGDWNYHTGMDYWGKGILVTVSS
B4: SVT13L (VHH)
VHH: QVQLQESGGGLVQAGGSLRLSCAVSGTNFDDYAIGWFRQAPGKRREAVACISKTDGVTRYGNGVKGRFTISSDEARNTVFLQMNDLKDEDTAIYYCIGDFKSCGMGYKPIDHWGRGIQVTVSS

Columns and labels:
[1] = target: T2, tetanus neurotoxin (TeNT), authentic tetanus holotoxin (Clostridium tetani, UniProt P04958 2-1315); assay: GT1b-TeNT inhibition ELISA, EC at A450 0.59
Target sequence in this assay (P04958 2-457 limits assumed, chain 1 of 2): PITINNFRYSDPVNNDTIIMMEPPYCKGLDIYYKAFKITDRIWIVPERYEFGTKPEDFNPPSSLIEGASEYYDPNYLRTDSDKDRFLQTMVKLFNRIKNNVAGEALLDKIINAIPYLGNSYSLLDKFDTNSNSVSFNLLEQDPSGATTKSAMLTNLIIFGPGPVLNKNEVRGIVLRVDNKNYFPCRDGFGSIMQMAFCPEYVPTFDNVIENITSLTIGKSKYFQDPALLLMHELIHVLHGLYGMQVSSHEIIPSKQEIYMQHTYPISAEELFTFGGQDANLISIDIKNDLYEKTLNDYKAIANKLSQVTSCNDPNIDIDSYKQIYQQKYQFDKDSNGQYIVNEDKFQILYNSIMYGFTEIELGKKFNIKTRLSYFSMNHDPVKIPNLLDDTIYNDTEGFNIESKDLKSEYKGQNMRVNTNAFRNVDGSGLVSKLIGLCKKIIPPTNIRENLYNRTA
Target sequence in this assay (P04958 458-1315 limits assumed, chain 2 of 2): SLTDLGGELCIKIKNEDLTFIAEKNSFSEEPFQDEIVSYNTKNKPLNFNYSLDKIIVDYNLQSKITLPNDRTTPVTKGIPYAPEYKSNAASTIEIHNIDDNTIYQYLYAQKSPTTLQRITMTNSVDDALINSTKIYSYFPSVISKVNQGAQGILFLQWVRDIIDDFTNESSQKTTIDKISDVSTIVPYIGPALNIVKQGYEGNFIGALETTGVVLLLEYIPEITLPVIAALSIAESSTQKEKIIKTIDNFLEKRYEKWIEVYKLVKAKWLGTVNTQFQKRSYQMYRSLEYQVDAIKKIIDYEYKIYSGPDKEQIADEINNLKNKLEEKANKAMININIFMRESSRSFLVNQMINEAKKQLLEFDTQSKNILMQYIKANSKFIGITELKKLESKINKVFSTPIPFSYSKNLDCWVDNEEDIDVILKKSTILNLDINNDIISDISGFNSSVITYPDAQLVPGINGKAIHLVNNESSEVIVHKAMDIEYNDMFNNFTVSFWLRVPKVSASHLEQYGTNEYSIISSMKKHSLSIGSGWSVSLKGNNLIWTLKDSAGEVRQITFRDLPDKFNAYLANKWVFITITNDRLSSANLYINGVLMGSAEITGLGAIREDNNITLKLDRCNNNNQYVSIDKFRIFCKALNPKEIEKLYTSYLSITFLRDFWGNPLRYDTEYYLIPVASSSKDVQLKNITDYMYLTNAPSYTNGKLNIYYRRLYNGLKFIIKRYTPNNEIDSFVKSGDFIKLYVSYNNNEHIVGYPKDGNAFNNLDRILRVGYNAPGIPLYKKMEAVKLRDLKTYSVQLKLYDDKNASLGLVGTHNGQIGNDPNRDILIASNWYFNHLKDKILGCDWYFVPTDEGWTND

[2] = target: T2, tetanus neurotoxin (TeNT), authentic …; assay: GT1b-TeNT inhibition ELISA, unlabelled binder
Target sequence in this assay (P04958 2-457 limits assumed, chain 1 of 2): as the sequence (P04958 2-457 limits assumed, chain 1 of 2) above
Target sequence in this assay (P04958 458-1315 limits assumed, chain 2 of 2): as the sequence (P04958 458-1315 limits assumed, chain 2 of 2) above

[3] = target: T2, tetanus neurotoxin (TeNT), authentic …; assay: ELISA, directly coated TeNT, unlabelled binder
Target sequence in this assay (P04958 2-457 limits assumed, chain 1 of 2): as the sequence (P04958 2-457 limits assumed, chain 1 of 2) above
Target sequence in this assay (P04958 458-1315 limits assumed, chain 2 of 2): as the sequence (P04958 458-1315 limits assumed, chain 2 of 2) above

[4] = target: T1, recombinant tetanus toxin fragment C …; assay: ELISA, directly coated rTTC, unlabelled binder
[5] = target: T2, tetanus neurotoxin (TeNT), authentic …; assay: ELISA, directly coated TeNT, biotinylated binder
Target sequence in this assay (P04958 2-457 limits assumed, chain 1 of 2): as the sequence (P04958 2-457 limits assumed, chain 1 of 2) above
Target sequence in this assay (P04958 458-1315 limits assumed, chain 2 of 2): as the sequence (P04958 458-1315 limits assumed, chain 2 of 2) above

[6] = target: T2, tetanus neurotoxin (TeNT), authentic …; assay: ELISA, TeNT captured with cAb-TT2, unlabelled binder
Target sequence in this assay (P04958 2-457 limits assumed, chain 1 of 2): as the sequence (P04958 2-457 limits assumed, chain 1 of 2) above
Target sequence in this assay (P04958 458-1315 limits assumed, chain 2 of 2): as the sequence (P04958 458-1315 limits assumed, chain 2 of 2) above

[7] = target: T2, tetanus neurotoxin (TeNT), authentic …; assay: ELISA, TeNT captured with cAb-TT2, biotinylated binder
Target sequence in this assay (P04958 2-457 limits assumed, chain 1 of 2): as the sequence (P04958 2-457 limits assumed, chain 1 of 2) above
Target sequence in this assay (P04958 458-1315 limits assumed, chain 2 of 2): as the sequence (P04958 458-1315 limits assumed, chain 2 of 2) above

[8] = target: T2, tetanus neurotoxin (TeNT), authentic …; assay: competition ELISA on TeNT, binder biotinylated; competitor SVT02L
[9] = target: T2, tetanus neurotoxin (TeNT), authentic …; assay: competition ELISA on TeNT, binder biotinylated; competitor SVT03L
[10] = target: T2, tetanus neurotoxin (TeNT), authentic …; assay: competition ELISA on TeNT, binder biotinylated; competitor SVT06L
[11] = target: T2, tetanus neurotoxin (TeNT), authentic …; assay: competition ELISA on TeNT, binder biotinylated; competitor SVT08L
[12] = target: T2, tetanus neurotoxin (TeNT), authentic …; assay: competition ELISA on TeNT, binder biotinylated; competitor SVT13L
[13] = target: T2, tetanus neurotoxin (TeNT), authentic …; assay: competition ELISA on TeNT, binder biotinylated; competitor SVT15L
[14] = target: T2, tetanus neurotoxin (TeNT), authentic …; assay: competition ELISA on TeNT, binder biotinylated; competitor SVT16L
[15] = target: T2, tetanus neurotoxin (TeNT), authentic …; assay: competition ELISA on TeNT, binder biotinylated; competitor SVT22L
[16] = target: T2, tetanus neurotoxin (TeNT), authentic …; assay: competition ELISA on TeNT, binder biotinylated; competitor SVT34L
[17] = target: T2, tetanus neurotoxin (TeNT), authentic …; assay: competition ELISA on TeNT, binder biotinylated; competitor mAb 6E7
[18] = target: T2, tetanus neurotoxin (TeNT), authentic …; assay: competition ELISA on TeNT, binder biotinylated; competitor mAb 14F5
[19] = target: T2, tetanus neurotoxin (TeNT), authentic …; assay: competition ELISA on TeNT, binder biotinylated; competitor mAb 6F57
[20] = target: T2, tetanus neurotoxin (TeNT), authentic …; assay: competition ELISA on TeNT, binder biotinylated; competitor mAb 11n185
[21] = target: T2, tetanus neurotoxin (TeNT), authentic …; assay: competition ELISA on TeNT, binder biotinylated; competitor SVT15L-3FW4M

Binder | concentration giving A450 of 0.59 [1] [µg/mL] | minimal absorbance at 450 nm [2] | EC resulting in A450 0.2 [3] [ng/mL] | maximal absorbance at 450 nm [3] | maximal absorbance at 450 nm [4] | EC resulting in A450 0.4 [5] [ng/mL] | maximal absorbance at 450 nm [5] | EC resulting in A450 0.15 [6] [ng/mL] | maximal absorbance at 450 nm [6] | EC resulting in A450 0.2 [7] [ng/mL] | maximal absorbance at 450 nm [7] | % inhibition of binding [8] [%] | % inhibition of binding [9] [%] | % inhibition of binding [10] [%] | % inhibition of binding [11] [%] | % inhibition of binding [12] [%] | % inhibition of binding [13] [%] | % inhibition of binding [14] [%] | % inhibition of binding [15] [%] | % inhibition of binding [16] [%] | other results
B1 | 0.105 | 0.107 | 2 | 1.59 | 0.981 | 1.3 | 1.34 | 5.4 | 0.318 | 2.6 | 0.799 | 4 | 5 | 6 | 1 | 95 | 2 | 92 | 94 | 93 | % inhibition of binding [17]: 8%; % inhibition of binding [18]: 0%; % inhibition of binding [19]: 10%; % inhibition of binding [20]: 3%; % inhibition of binding [21]: 11%
B2 | 0.317 | 0.481 | 1.7 | 1.39 | 0.543 | 0.39 | 1.51 | 2.6 | 0.409 | 0.37 | 1.2 | 11 | -3 | 96 | 97 | 7 | 14 | -3 | 3 | 11 | % inhibition of binding [17]: 67%; % inhibition of binding [18]: 11%; % inhibition of binding [19]: 53%; % inhibition of binding [20]: 5%; % inhibition of binding [21]: 12%
B3 | 0.072 | 0.14 | 2.8 | 1.34 | 0.528 | 2.8 | 1.4 | 5.7 | 0.477 | 5.7 | 0.825 | 6 | -5 | 1 | 15 | 2 | 96 | 5 | 2 | 10 | % inhibition of binding [17]: 6%; % inhibition of binding [18]: 7%; % inhibition of binding [19]: 4%; % inhibition of binding [20]: 0%; % inhibition of binding [21]: 96%
B4 | 0.082 | 0.126 | 1.9 | 1.54 | 1.1 | 0.57 | 1.48 | 4.1 | 0.487 | 1.3 | 1.06 | 7 | 1 | 1 | 13 | 95 | -19 | 91 | 92 | 91 | % inhibition of binding [17]: 2%; % inhibition of binding [18]: 5%; % inhibition of binding [19]: 0%; % inhibition of binding [20]: 2%; % inhibition of binding [21]: 8%
